Reference: article PMC8490876, “Functional Characterization of a L-2-Haloacid Dehalogenase From Zobellia galactanivorans Dsij^T Suggests a Role in Haloacetic Acid Catabolism and a Wide Distribution in Marine Environments” (Frontiers in Microbiology, 2021)

Key:
purified protein [1] = substrate: O=C(O)CBr; assay: purified protein; type: biochemical, Zobellia galactanivorans; conditions: 20 °C, 1 mM HEPES, 1 mM EDTA, 20 mM sodium sulfate, 56 μM phenol red, pH 8.2 (initial), 0.3 mg/ml enzyme
purified protein [2] = substrate: O=C(O)CI; assay: purified protein; type: biochemical, Zobellia galactanivorans; conditions: 20 °C, 1 mM HEPES, 1 mM EDTA, 20 mM sodium sulfate, 56 μM phenol red, pH 8.2 (initial), 0.3 mg/ml enzyme

B1: ZgHAD (Zobellia galactanivorans) (protein)
chain: MSAKVKKPELLIFDVNETLLDMGPLENAINESLNSEHAFSLWFRTLLHYSLTETLTGNYVDFGTIGKATLKMTMRKFGKNLSEDRLDAILGNIKKLPAHEDVKEGLKMLKEAQIKLVALSNSNGKLLNAQLQFAGLADYFDAIFSVEAVGRYKPELASYRAVLETMKVPAENTMMVAAHGWDILGAKRAGLRTAFVAREGHAIYPLDGTPELEAKTVLEVARTLLKN
notes: recombinant, pFO4 vector, E. coli BL21 (DE3); homodimer in solution
Work on B1 yielded a Km (purified protein [1]) of 460 µM and a Km (purified protein [2]) of 310 µM.
